Results taken from patent US20260226503A1.

How the values were obtained:
[1] = biological target: AAV2 capsid (adeno-associated virus serotype 2) (UniProt P03135); assay: bind-and-elute chromatography, pure AAV2; bound at pH 7.0, eluted with 0.2 M MgCl2 in citrate pH 2.2; ELISA
[2] = biological target: AAV9 capsid (adeno-associated virus serotype 9); assay: bind-and-elute chromatography, pure AAV9; bound at pH 7.0, eluted with 0.2 M MgCl2 in citrate pH 2.2; ELISA
[3] = biological target: AAV9 capsid (adeno-associated virus serotype 9); assay: bind-and-elute chromatography, pure AAV9; bound at pH 7.0, eluted with PBS pH 2.0; ELISA
[4] = biological target: AAV2 capsid (adeno-associated virus serotype 2) (UniProt P03135); assay: bind-and-elute chromatography, pure AAV2; bound at pH 7.0, eluted with PBS pH 2.0; ELISA

AAV2 capsid (adeno-associated virus serotype 2), sequence (P03135 whole entry, chain 1 of 3): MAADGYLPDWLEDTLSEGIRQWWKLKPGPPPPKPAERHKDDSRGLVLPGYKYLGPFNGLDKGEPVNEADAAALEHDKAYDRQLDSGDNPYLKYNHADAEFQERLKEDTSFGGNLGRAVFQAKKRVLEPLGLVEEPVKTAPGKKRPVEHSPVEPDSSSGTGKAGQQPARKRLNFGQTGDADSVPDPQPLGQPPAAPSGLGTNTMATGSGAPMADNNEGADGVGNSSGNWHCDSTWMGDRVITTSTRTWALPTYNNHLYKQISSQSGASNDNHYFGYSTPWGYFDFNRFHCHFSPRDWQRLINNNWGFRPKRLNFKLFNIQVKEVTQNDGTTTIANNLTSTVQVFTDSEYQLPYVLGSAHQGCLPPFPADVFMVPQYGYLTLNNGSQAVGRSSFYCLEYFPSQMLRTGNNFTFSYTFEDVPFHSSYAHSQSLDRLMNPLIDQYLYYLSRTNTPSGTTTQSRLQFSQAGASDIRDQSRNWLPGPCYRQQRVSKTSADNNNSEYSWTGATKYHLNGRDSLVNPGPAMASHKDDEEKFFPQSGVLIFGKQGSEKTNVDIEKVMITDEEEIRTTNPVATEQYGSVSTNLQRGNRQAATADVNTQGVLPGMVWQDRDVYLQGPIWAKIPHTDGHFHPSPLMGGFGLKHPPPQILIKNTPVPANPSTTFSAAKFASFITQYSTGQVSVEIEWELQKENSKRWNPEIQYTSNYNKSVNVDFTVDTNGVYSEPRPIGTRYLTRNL
AAV2 capsid (adeno-associated virus serotype 2), sequence (P03135 139-735, tags left off, chain 2 of 3): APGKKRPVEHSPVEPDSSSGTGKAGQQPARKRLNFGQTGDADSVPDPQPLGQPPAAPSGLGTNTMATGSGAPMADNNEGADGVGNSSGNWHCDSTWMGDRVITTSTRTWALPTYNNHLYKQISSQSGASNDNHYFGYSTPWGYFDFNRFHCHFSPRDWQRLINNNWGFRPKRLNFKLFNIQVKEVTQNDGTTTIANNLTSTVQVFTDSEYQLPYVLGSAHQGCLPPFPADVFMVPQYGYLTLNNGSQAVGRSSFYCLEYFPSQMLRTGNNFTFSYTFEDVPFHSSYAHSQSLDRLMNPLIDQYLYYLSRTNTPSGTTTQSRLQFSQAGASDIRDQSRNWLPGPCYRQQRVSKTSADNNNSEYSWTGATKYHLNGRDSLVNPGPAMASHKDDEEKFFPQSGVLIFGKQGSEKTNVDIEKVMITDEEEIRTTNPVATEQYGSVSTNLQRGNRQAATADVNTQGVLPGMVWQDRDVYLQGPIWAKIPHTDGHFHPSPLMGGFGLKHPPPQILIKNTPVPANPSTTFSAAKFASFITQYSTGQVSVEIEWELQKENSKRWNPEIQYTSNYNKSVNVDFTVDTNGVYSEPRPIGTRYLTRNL
AAV2 capsid (adeno-associated virus serotype 2), sequence (P03135 203-735, chain 3 of 3): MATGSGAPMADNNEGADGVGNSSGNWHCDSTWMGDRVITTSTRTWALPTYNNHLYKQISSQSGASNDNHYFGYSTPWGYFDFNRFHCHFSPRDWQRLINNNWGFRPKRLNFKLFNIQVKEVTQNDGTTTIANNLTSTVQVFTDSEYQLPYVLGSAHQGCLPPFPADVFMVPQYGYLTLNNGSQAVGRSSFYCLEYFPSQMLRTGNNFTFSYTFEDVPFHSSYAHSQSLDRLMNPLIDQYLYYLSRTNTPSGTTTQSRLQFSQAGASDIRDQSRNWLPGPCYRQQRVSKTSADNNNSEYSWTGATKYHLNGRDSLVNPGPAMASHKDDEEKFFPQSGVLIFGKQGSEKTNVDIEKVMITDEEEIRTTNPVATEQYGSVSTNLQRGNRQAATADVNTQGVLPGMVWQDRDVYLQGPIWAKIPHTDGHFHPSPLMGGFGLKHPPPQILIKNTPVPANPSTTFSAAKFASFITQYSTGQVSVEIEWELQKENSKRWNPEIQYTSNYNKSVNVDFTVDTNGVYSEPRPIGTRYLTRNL

Substance: POROS CaptureSelect AAVX Affinity resin (VHH)
- yield (AAV titer in elution fraction vs. load) [1]: 63.4%
- yield (AAV titer in elution fraction vs. load) [2]: 25.6%

Substance: AVB Sepharose HP resin (VHH)
- yield (AAV titer in elution fraction vs. load) [3]: 10.6%
- yield (AAV titer in elution fraction vs. load) [4]: 45.8%
